Measured values published in US20170319675A1.

Assays:
Experiment in all cases: REVEAL MHC-peptide binding assay
HLA-DR5 (human) = target: HLA-DR5 (human)
HLA-DR7 (human) = target: HLA-DR7 (human)
HLA-DR1 (human) = target: HLA-DR1 (human)
HLA-DR2 (human) = target: HLA-DR2 (human)
HLA-DR4 (human) = target: HLA-DR4 (human)

Binder	Relative Binding Score (% compared to the positive control) (HLA-DR5 (human))	Relative Binding Score (% compared to the positive control) (HLA-DR7 (human))	Relative Binding Score (% compared to the positive control) (HLA-DR1 (human))	Relative Binding Score (% compared to the positive control) (HLA-DR2 (human))	Relative Binding Score (% compared to the positive control) (HLA-DR4 (human))
TFSYVDPVITSISPKYG (peptide, from a related filing) [MET-005]	0.12	3.69	0.87	0.28	5.89
TLGEFLKLDRERAKN (peptide, from a related filing) [BIR-002]	104	0.27	40.1	0.05	6.12
